Laboratory results taken from US5958748, “DNA coding for serine/threonine kinase” (dated 1999).

Target: fused protein of GAL4 DNA binding domain and mouse ATF4 leucine zipper domain (amino acids 298 to 349 in the … (mouse, UniProt P04386))
Test: yeast two-hybrid, colony formation on histidine-, tryptophan-, leucine- medium
Procedure: The site to which ZIP-kinase and ATF4 bind was determined using yeast two-hybrid system. First, variants of mouse ZIP-kinase were prepared: 1) amino acids 278 to 448 of ZIP-kinase (ZIP-kinase 278–448); 2) leucine zipper domain of ZIP-kinase (amino acids 398 to 448) (ZIP-kinase LZ); and 3) a variant of ZIP-kinase in which valine and leucine in the leucine zipper domain were substituted with alanine (ZIP-kinase LA). Each of these variants was designed to produce a chimeric protein with GAL4 trans activating domain, and DNA coding for said chimeric protein was inserted into pACT2 and introduced into yeast strain Y190 together with pAS2-1-ATF4 LZ. The strain was cultivated on histidine+, tryptophan–, leucine–, and histidine–, tryptophan–, leucine– selective media.

- binding result: no binding
B1: ZIP-kinase LA (variant of mouse ZIP-kinase in which valine and leucine in the leucine zipper domain were substituted with alanine) as chimeric protein with … (enzyme)
chain: MSTFRQEDVEDHYEMGEELGSGQFAIVRKCQQKGTGMEYAAKFIKKRRLPSSRRGVSREEIEREVSILREIRHPNIITLHDVFENKTDVVLILELVSGGELFDFLAEKESLTEDEATQFLKQILDGVHYLHSKRIAHFDLKPENIMLLDKHAASPRIKLIDFGIAHRIEAGSEFKNIFGTPEFVAPEIVNYEPLGLEADMWSIGVITYILLSGASPFLGETKQETLTNISAVNYDFDEEYFSSTSELAKDFIRRLLVKDPKRRMTIAQSLEHSWIKVRRREDGARKPERRRLRAARLREYSLKSHSSMPRNTSYASFERFSRVLEDVAAAEQGLRELQRGRRQCRERVCALRAAAEQREARCRDGSAGLGRDLRRLRTELGRTEALRTRAQEEARAALLGAGGLKRRLCRLENRYDALAAQAAAEVQFARDLVRAAEQERLQAECGVR
